Data reported in the domain aggregation screens of Martell et al. (2025).

Assay: soluble fraction after stress (log2 fold change); higher = more stays soluble; pooled small domains, quantitative proteomics
Details: stress: pH 4
Summary of the method: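 Custom libraries of small protein domains were pooled and exposed to pH 4. High-throughput quantitative proteomics then measured the log2 fold change in the amount of each domain still soluble, with higher values meaning more stayed soluble. This soluble-fraction fold change stands for aggregation propensity.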

| Sequence | soluble fraction (log2) |
| --- | --- |
| HMKYSQAMIAQIIKHFHLPNNTVVTGEDVDAILLRSVDGGDGIYGGDVVSIWKYYKKQNDIQEIVT | -0.764 |
| HMLAEEDRRRAERPGLDGNAVMVHLGIGPGRHVGEALAFLLEVRRSEGDLAVAELKSRIDAWWADR | -1.49 |
| HMLAERKERDKAELKELILDAAKKILLKNGQEGLSIRKIATTVEYSPATIYLYFKDKDEILHELMEMG | 0.151 |
| HMLAHSEFGARLRETRKRLGLSQSELGGDRYSGSYISHLESGRRAASAEVIEFLAGRLGVEVEELGM | -1.2 |
| HMLAIELDDKPGSLLRALEIFAKRNLNIEYMYAFTEKRGDKAVMIFKFSDIETAKKSLLEEGFN | -1.13 |
| HMLAKNDSGLNNHTFNAIRDALLEALADGPAEAKKLTENISFPSDKIITVIRFLADHDDRFSLEDGILSLT | -0.846 |
| HMLAKYEIIKQDIIQMIEEKKFKPGDKIYSEGELKKIYNVSSTTVVRALQDLVLSGYLIRKQGEGTYVRK | 0.222 |
| HMLASDYEEELSVLIKMSHKIAAGDDSLMDDFNDRVTMFESSYPINKATKDLTPVLERVNKFQT | -0.295 |
| HMLDDDAGMIQAILRKAPGHYLPLHDKSDPASIQAQLGISKAQFKRAVGTLMKQGLIRQVKGDGLYLTQ | 0.125 |
| HMLDDESLHFFYKKDGWEYWMKTTTENNYPIQLRKKIGDEKVQEYWNGDKEKKKIGASYFGV | -0.6 |
| HMLDFLVSKYESELLADLLWSLGVVAVEEREATGDLVTLRTSLGDDHSFTRELVQEKFPDVIVSTAL | -2.23 |
| HMLDIVVGSTGYALGEITDHSGTVRVNGDTWTARLVDAAGPVEDGDRVEVYAVEGTTLLVYPS | 0.128 |
| HMLDKEDNANAGKTLLERELSRAHLSDVEHRELAQRLHLASEQELYIKIGSGDLSIIQALNRAKEFKDT | -0.8 |
| HMLDKRSHAKKVLDAIEAVILGRATNDQLAYTINGRSLQKTPLPDLLRLRSQYQAEYQRELRAERIRKG | ≥ 0.43 |
| HMLDLPVKTINGKQYYYYTVKKGDTVYSLITRFGITRSDLVESNPAAADVLKTGDTLYFAVDKFG | 0.0813 |
| HMLDLYYDSEDKLLIDMGTGEVIRSFADDKRSLVFDAQAKILFDEDSGDIVYSSYFDKLITDKLASKS | -1.51 |

| Sequence | soluble fraction (log2) |
| --- | --- |
| HMLDPIQEGKKMLNSRLSGFGITPNTRLMNKLLAAYNISSREEFYGRIGAGIEDLSTLREVLLKGT | -0.182 |
| HMLDQSYYETANEIISRYPLEEKSLIPIIQDIQATYRYLPPDLLDYVAKKIGITETKAYSVASFYENFSF | -1.09 |
| HMLDRNKLNELDAYIESFEDKPSHLIMILHRAQGLFGYLPKELQIYVAEKTGVPAAKVYGVVTFYSFFTMK | -0.737 |
| HMLEDDTVNTAEGIKIGDSFAAVTKAYGTDYVAAGNTYAYSKDKMTLTFVMNNDKVSTISYSLLTS | -0.412 |
| HMLEDYFKEEEYTEVLKIPKEYIKGFQYYLIEDAEFVNALRAKNKTMTLFLAKKLASDYIEIIRREQ | -1.31 |
| HMLEIGRYNTLTVLRKVDFGYYLDGLDYGDILMPAKYAATELEAGDEVDVFIYLDSSEKLIATTETPIAQ | -1.58 |
| HMLEIQENFQNILKRMELSLSPLERRVLALYLSGYERSEIPEKTGIPLKTFDNALHRVRNKMK | -0.711 |
| HMLEKDIGKAITILRKSYQLSISAFSMRTGYSRVHISEVESGKRKATDELISVIRNVFHLDSNWPF | -0.517 |
| HMLELDRTNLLGVFGSKSNPYALIMLSNGEMLKLSIGDQFLGWRVYAIDQTTVHVQNGKNQEILRIP | -0.772 |
| HMLELLSMEDIQRTRVGDLIATVRQVDRQHALVLDRDPETGKPAVRGIFSLSQISLRLGLNI | -0.733 |
| HMLEPGIAVLKTLMSQYRLGVADLPELGSKSNVSKLLNAVEGKKLTRQHIEALSKRFAVSPALF | 0.114 |
| HMLEPGQKVKSVVVDISGDLIYIDLGGKTEGVVELKEFYDEAGEYHVKPGDEIEVFFVSVQNGLKRFTT | -0.403 |
| HMLEQISDPEVLSKLADEVLSQQEKMVMDYRKGKTAAFQGLMGQMMKKTKGKGNPAKIQEILAQKL | -0.192 |
| HMLEQLTPRELKVLQALAQGRQNKEIAAQLVISERTVKFHVSAILSKLNVGNRTEAVTVAAQRGLISL | -0.729 |
| HMLEQSYYEKTDEIIELHGAKASSLIPVMQDVQAEYRYLPGELLSYIADKLGIPLAKAYSVATFYENFS | -0.951 |
